This is an account of results in patent US20250073350A1 (BROAD INSTITUTE, published 2025).

The data set concerns the molecule itself. Description: self-association; size exclusion and electron microscopy of protein produced in E. coli.

B1: MmPNMA5, bacterially produced (other, mouse, UniProt Q5DTT8 1-618, looked up)
chain: MAVALLDDWCKGMDLDPKKAVLIVGIPVQYTEAAINDALKEGLPPLCAYKVIGRMFRREDEAKAVLIELPEVVDYTMMPTHIPAEGGAWEVVVKPRSPDDEFMNKLIYFLRDEGRRIVDVAKALGFSTVPTGKIELKNLDQDKPKGLKSLCNNSTCYKKLKVFSGSPFPGPGEESFETWLEEVTELMQLWQVSEREKKQCLLESLRGSALSIMQALWTSNDSLTVEQCLKALKHIFGNKEDSKVLQFRFLQSSQKPAEKVSDYLLRLEPLLQKAVQQSPLSAHSADSIRLKHVLSQVSMTTGLRGKLSLLDQQGCPPTFLELMKLTRDEEEWESTVVVEEQEQVRRDSSACEAANEVVTQAEDSREVSTQTTGEEMTSVKRRRLLWRHSAGEEGQRKESGFWAESEPDEQKPYVRAQESGNERGAWAVSHPNPKEIEAQDSQEFLPVAGNRDTLTKSWGSPDKGTGDMSVAEGQQGQGKAPNFLLARNDPNKQEQIPHSSVTTKWQDRGECQRLKWGASMITRPQGNPDRSWDTSGSQDGEDGCSELRMPTGTEAAQGVEEPATGLSWAEDTSAWEQARLGRETVPRRGGRRIQPVFRIIYTALGEPHEGSTLESFRE
notes: also called paraneoplastic antigen-like protein 5
Take B1: the binding result is “binds”.

B2: MmMOAP1, bacterially produced (other, mouse, UniProt Q9ERH6 1-352, looked up)
chain: MTLRLLEDWCRGMDMNPRKALLVAGIPPTCGVADIEEALQAGLAPLGEHRLLGRMFRRDENKNVALIGLTVETGSALVPKEIPAKGGVWRVIFKPPDTDSDFLCRLNEFLKGEGMTMGELTRVLGNRNDPLGLDPGIMIPEIRAPMLAQALNEALKPTLQYLRYKKLSVFSGRDPPGPGEEEFESWMFHTSQVMKTWQVSDVEKRRRLIESLRGPAFEIIRVLKINNPFITVAECLKTLETIFGIIDNPRALQVKYLTTYQKTDEKLSAYVLRLEPLLQKLVQKGAIEKEVVNQARLDQVIAGAVHKSVRRELGLPEGSPAPGLLQLLTLIKDKEAEEEEVLLQAELEGYCT
notes: also called modulator of apoptosis 1
Consider B2, for which the binding result is “binds”.
